Source: PMC12002136

Target: exportin 1 (XPO1, CRM1) (UniProt O14980)
Assay: anti-HA
Settings: reference: wild type; sites S182

YTHDF1 (from UniProt Q9BYJ9) S182A
binding against the reference: stronger
